The values below come from publication PMC6547012, “TCP Transcription Factors Associate with PHYTOCHROME INTERACTING FACTOR 4 and CRYPTOCHROME 1 to Regulate Thermomorphogenesis in Arabidopsis thaliana” (iScience, 2019).

In the assay the target is T1, FLAG-CRY1 (Arabidopsis thaliana, UniProt Q43125 1-681).
T1 construct: CRYPTOCHROME 1 (CRY1), Arabidopsis thaliana; source: E. coli-purified
Description: pull-down; in vitro pull-down; MBP or MBP-TCP17 incubated with FLAG-CRY1 for 2 h at 4°C; immunoblot with anti-MBP or anti-FLAG. The settings on record: both partners purified.

T1 sequence (Q43125 whole entry): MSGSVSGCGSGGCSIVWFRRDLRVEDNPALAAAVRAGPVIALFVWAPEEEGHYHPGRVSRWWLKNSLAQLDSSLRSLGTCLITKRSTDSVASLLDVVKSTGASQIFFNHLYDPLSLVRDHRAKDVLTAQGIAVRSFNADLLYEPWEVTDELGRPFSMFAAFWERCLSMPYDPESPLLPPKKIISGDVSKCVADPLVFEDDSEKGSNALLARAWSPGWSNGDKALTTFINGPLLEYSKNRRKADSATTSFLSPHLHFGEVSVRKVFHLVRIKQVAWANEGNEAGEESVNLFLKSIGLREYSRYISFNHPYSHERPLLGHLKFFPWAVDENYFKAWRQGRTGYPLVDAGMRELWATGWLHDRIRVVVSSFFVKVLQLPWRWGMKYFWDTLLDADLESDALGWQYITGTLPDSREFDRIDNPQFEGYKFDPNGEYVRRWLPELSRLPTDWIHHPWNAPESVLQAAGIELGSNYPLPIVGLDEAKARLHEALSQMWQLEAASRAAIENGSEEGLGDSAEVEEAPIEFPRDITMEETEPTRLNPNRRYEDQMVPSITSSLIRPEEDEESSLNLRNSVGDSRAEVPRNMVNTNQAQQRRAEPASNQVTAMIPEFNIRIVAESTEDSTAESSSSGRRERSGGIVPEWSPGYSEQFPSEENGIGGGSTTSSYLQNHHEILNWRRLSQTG

B1: MBP-TCP17 (natural protein, Arabidopsis thaliana, UniProt Q9LEZ9 1-242, looked up)
chain: MGIKKEDQKSSLSLLTQRWNNPRIVRVSRAFGGKDRHSKVCTVRGLRDRRIRLSVMTAIQVYDLQERLGLSQPSKVIDWLLEVAKNDVDLLPPLQFPPGFHQLNPNLTGLGESFPGVFDLGRTQREALDLEKRKWVNLDHVFDHIDHHNHFSNSIQSNKLYFPTITSSSSSYHYNLGHLQQSLLDQSGNVTVAFSNNYNNNNLNPPAAETMSSLFPTRYPSFLGGGQLQLFSSTSSQPDHIE
notes: TCP17, Arabidopsis thaliana; also called MBP-tagged TCP17; source: E. coli expressed and purified
Turning to B1, the binding result was “binds”.
